Test results published in paper doi:10.1101/2022.07.04.498669.

Target: paDXPS as measured by native mass spectrometry (Pseudomonas aeruginosa) (UniProt Q9KGU7)
Experiment: native MS

In the case of “paDXPS as measured by native mass spectrometry (from UniProt Q9KGU7 1-627) (enzyme)”, the stoichiometry N is reported as 2.
